Laboratory results taken from US20180265573A1 (ICAHN SCHOOL OF MEDICINE AT MOUNT SINAI, published 2018).

Assays:
[1] = target: baculovirus-expressed hemagglutinin of influenza virus A/Solomon Islands/06 (H1) (influenza A virus A/Solomon Islands/06 …)
[2] = target: baculovirus-expressed hemagglutinin of influenza virus A/California/04/09 (H1) (influenza A virus A/California/04/09 …)
[3] = target: T1, hemagglutinin of influenza A virus A/Hong Kong/1/68 (H3) (influenza A virus A/Hong Kong/1/68 (H3), UniProt Q91MA7 17-566); assay: immunofluorescence on infected, fixed MDCK cells
T1 construct: whole, on cells; also called HK68 (H3)

[4] = target: hemagglutinin of influenza A virus A/Puerto Rico/8/34 (influenza A virus A/Puerto Rico/8/34, UniProt P03452 18-565); assay: cell-based or functional assay

B1: monoclonal antibody GG3 (antibody, V domains shown)
VH: QIQLVQSGPELKKPGETVKISCKASGYTFTNYGMNWVKQAPGKGLKWMGWINIYSGESTYVDDFTGRFAFSLETSASTAYLQINNLKNEDMATYFCARSGDTMITAGRSFFAMDYWGQGTSVTVSS
VL: DIQMTQSPSSLSASLGERVSLTCRASQEISGYLSWLQQKPDGTIKRLIYAASTLDSGVPKRFSGSRSGSDYSLSISSLESEDFADYYCLQYANYPWSFGGGTKLEIK
notes: also called mAb GG3; Mab GG3
- EC50 (read off the curve) [1]: ~0.007 µg/mL
- EC50 (read off the curve) [2]: ~0.01 µg/mL
- binding result [3]: no binding (tested: 5 µg/mL)
- IC50 (read off the curve), plaque reduction neutralization assay [4]: ~1 µg/mL
